Measurements: publication PMC3696110, “Hsp70 Oligomerization Is Mediated by an Interaction between the Interdomain Linker and the Substrate-Binding Domain” (PLoS ONE, 2013)
Several values for one entry are separate records, joined by “and”; a condition that tells them apart may be missing. Equal values may be shown once. Read-outs that look alike come from different tables or passages of the source.

Experiments:
[1] = cited from earlier work; for Protein in oligomeric state: ref [30]
Source text: It has been shown, for example, that up ...

[2] = test system: peptide substrates; set-up: method as in PMID 10876246; settings: two different peptide substrates; ref [3]; cited from earlier work
[3] = Analytical SEC relative populations of oligomeric forms; type: physicochemical, human; settings: Superdex 75, 4 °C; for Dimer population / Monomer population / Total oligomer population: 50 mM Tris pH 7.4, 150 mM KCl
Protocol: Analytical SEC was performed at 4 °C using a Superdex 75 10/300 GL column (GE Healthcare LifeSciences, Little Chalfont, U.K.), which had previously been calibrated using a mixture of standard proteins (Gel Filtration LMW Calibration Kit; GE Healthcare LifeSciences, Little Chalfont, U.K.). Typically, samples of the various constructs contained 70 µM of protein in 50 mM Tris buffer at pH 7.4, with 150 mM KCl, 5 mM MgCl2 and were incubated for 15 min (unless otherwise specified) at room temperature before being loaded onto the column for analysis. To evaluate the reversibility of the oligomerization process, the different elution peaks obtained for each protein variant were subsequently analyzed after concentrating the different fractions using AmiconUltra-0.5, Ultracel-3 Membrane, 3 kDa (Millipore, Bedford, MA, USA). A similar analysis was also performed at 6 µM concentration for all the protein variants to allow for a direct comparison between the results obtained by SEC and MS experiments.
The influence of substrate binding on the oligomerization properties of all the variants was examined by using the well-characterized Hsp70 substrate, the NR peptide (NRLLLTG, Genemed Synthesis Inc., San Antonio, TX, USA). A 14-fold excess of the peptide was added in each case to a fresh protein sample, incubated for 1 h at room temperature, unless otherwise specified, and then loaded onto the Superdex 75 10/300 GL column for analysis. The relative quantities of the different protein species were estimated by analysing the chromatographic profile using a Gaussian function for each elution peak (OriginPro 8, Originlab, Northampton, MA, USA) and measuring the relative area under each peak.

[4] = nESI-MS relative populations of oligomeric forms; type: physicochemical, human; settings: 6-15 µM protein, 150 mM ammonium acetate, pH 7.4, estimated error 5% (SD of 3-4 independent experiments)
Protocol: Prior to MS analysis, samples were buffer exchanged into 150 mM ammonium acetate, pH 7.4, using Micro Bio-spin 6 columns (Bio-Rad, Digilab Division, Cambridge, MA, USA). For all the experiments protein concentrations ranging from 6 to 18 µM were used. In the case of the substrate binding experiments, proteins were analyzed in the presence of a 1: 1 molar ratio of the NR peptide; this substrate concentration, lower than in the SEC experiments, was chosen to ensure adequate resolution of the various charge state series, which is critical for unambiguous assignment of substrate-bound states. Due to suppression effects during nESI ionization, a relatively limited set of molar ratios could be investigated by in this way.
nESI-MS spectra were obtained according to a previously published protocol on an orthogonal time-of-flight mass spectrometer with a Z-spray source (LCT, Waters, Manchester, UK) in positive ion mode using the following parameters: capillary voltage, 1500 V; sample cone voltage, 120 V (unless otherwise specified); extraction cone voltage, 1V; and ion transfer stage pressure, 8.8 mbar. Spectra were calibrated externally using a 33 mg/ml solution of cesium iodide. Data were acquired and processed with MassLynx software (Waters, Manchester, UK), and are shown with minimal smoothing and without background subtraction. The relative abundances of the different oligomeric states were estimated from the intensities of the most abundant charge states for each construct and are expressed as a percentage of the total intensity.

[5] = Secondary structure content from far-UV CD; type: physicochemical, human; settings: K2D software; 20 µM protein, 7 mM Tris pH 7.4, 170 mM KCl, 5 mM MgCl2; 25 °C
Protocol: Far-UV CD spectra for all protein variants were recorded using a Jasco J-810 spectropolarimeter equipped with a Peltier holder, using a 0.1 cm path length cuvette. Typically, samples contained 20 µM protein in 7 mM Tris buffer at pH 7.4, containing 170 mM KCl and 5 mM MgCl2. The far-UV CD spectra of all the variants in their native, thermally denatured and refolded states were recorded from 198 to 250 nm, and the spectrum of the buffer was systematically subtracted from the spectra of all protein samples. The secondary structure content was estimated from the far-UV CD spectrum for each protein variant using K2D software.

[6] = Thermal denaturation monitored by far-UV CD; type: physicochemical, human
Protocol: Protein structural stability was analyzed by monitoring the CD signal at 222 nm upon thermal denaturation. Thermal runs were performed from 5 to 90 °C at a rate of 1 °C. min^-1. Data points were acquired every 0.1 °C with a response time of 2 s and a bandwidth of […]. After thermal denaturation, each protein sample was cooled to the starting temperature, and a second denaturation curve recorded in order to analyse the degree of reversibility of the denaturation process. Analysis of the thermal unfolding curves was performed assuming a three-state unfolding model.

[7] = test system: ∆LSBD641; assay: Fluorescence competition assay of dansylated and non-dansylated NR peptide; type: binding, human
Protocol: Fluorescence competition assay. Samples containing 50 μM ∆LSBD641 and 2 μM dansylated-NR peptide (D-NR) in Tris 50 mM, pH 7.4, 150 mM KCl, 5 mM MgCl2 were incubated in the presence of different concentrations of non-dansylated NR peptide (ND-NR; 0, 50 and 200 μM) for 1h at room temperature and the dansyl fluorescence emission spectrum of each sample was recorded from 400 to 630 nm after excitation at 330 nm. The intensity at the maximum emission wavelength of three different samples for which ten spectra were recorded was averaged, and the fraction of bound D-NR peptide was then determined experimentally from the reduction in the fluorescence signal in relation to the reference sample without ND-NR peptide for which the fraction of bound D-NR peptide is known (83% of the D-NR peptide is bound in this conditions according to the affinity measured by fluorescence titration; see Figure […]
The fraction of bound D-NR peptide was theoretically calculated for each sample according to a competitive model where the two ligands bind to the same substrate-binding pocket in the chaperone and assuming different values for the affinity of the ND-NR peptide for ∆LSBD641 […]
fluorescence titration was 8 ± 2 μM).
From the mass balance of the total protein concentration (PT) in a two-ligands competitive model and substituting the concentration of each complex (PL1 and PL2, corresponding to the complex with D-NR and ND-NR peptide, respectively) by the expression obtained from the definition of the different dissociation constants, a third-order polynomial expression (A·P3 + B·P2 + C·P + D = 0) of the free concentration of protein (P) is obtained, where the coefficients of the different terms are:
(also on this page, place not known: dansylated - m M excitati on -NR sig nal ND -NR D -NR D -NR D -NR substrate -binding ND -NR K d D -NR ( PT) two -ligands substitut ing ( PL1 D -NR ND -NR third -order (A· P3 D ( P) Tdd TdTddTdTddTTTdd PKKD PKPkKLKLKKCPLLKKBA 21 211221212121 ;;;1 −= −−++=−+++==) […]
(1 picture or pasted object on this page, not shown here)

[8] = 70 µM protein, 5 mM MgCl2, 15 min at room temperature, estimated error 3.5% (SD of 3-4 independent experiments)
[9] = 6-15 µM protein, 5 mM MgCl2, estimated error 3.5% (SD of 3-4 independent experiments)

Substance | Dimer population [3, 8] [%] | Monomer population [3, 8] [%] | Dimer population [3, 9] [%] | Monomer population [3, 9] [%] | Total oligomer population [3, 9] [%] | Monomer population [4] [%] | Trimer population [4] [%] | Random-coil content estimated from far-UV CD [5] [%] | α-helix content estimated from far-UV CD [5] [%] | β-sheet content estimated from far-UV CD [5] [%] | also measured
BiP/Grp78: endoplasmic reticulum resident Hsp70 chaperone |  |  |  |  |  |  |  |  |  |  | Molecules existing as oligomers ([1]; in mammalian cells, ref [29]): 40-50%; Molecules existing as oligomers ([1]; in vitro, ca. 5 µM protein, ref [28]): 40-50%
DnaK 2-538: DnaK mutant protein lacking the C-terminal 100 residues, i.e. helices C-E and part of helix B |  |  |  |  |  |  |  |  |  |  | Association rate constants vs wild type DnaK [2]: unaffected; Dissociation rate constants vs wild type DnaK [2]: considerable increase
DnaK: bacterial Hsp70 homologue |  |  |  |  |  |  |  |  |  |  | Protein in oligomeric state ([1]; 0.5 mg/ml (ca. 7 µM)): approximately 20%; Protein in oligomeric state ([1]; 16 mg/ml (ca. 230 µM)): 70%
FL-Hsp70: full-length human Hsp70 1A, GenBank ID NP005336, recombinant N-hexa-His-tagged | 7 | 93 | 1 | 99 | 1 | 98 | 0 | 32 | 45 | 23 | Oligomeric species ([3]; 220 µM protein, 50 mM Tris pH 7.4): 35%; Total oligomer population [4]: 2%
SBD556: truncated human Hsp70 (384-556), lacks helices C, D and E and C-terminal disordered region; L542Y mutation | 7 | 93 | 3 | 97 | 3 | 82 | 2 | 54 | 21 | 25 | Total oligomer population [3, 8]: 7%; Dimer population [4]: 16%; ∆Hm, 1st transition ([6]; CD 222 nm, 20 µM protein, 7 mM Tris pH 7.4, 170 mM KCl, 5 mM MgCl2, three-state fit (C-term two-state), SE of fit): 63.9 ± 1.9 kcal/mol; ∆Hm, 2nd transition ([6]; CD 222 nm, 20 µM protein, 7 mM Tris pH 7.4, 170 mM KCl, 5 mM MgCl2, three-state fit, SE of fit): 85.4 ± 2.6 kcal/mol; Tm, 1st transition ([6]; CD 222 nm, 5 to 90 °C at 1 °C/min, 20 µM protein, 7 mM Tris pH 7.4, 170 mM KCl, 5 mM MgCl2, three-state fit (C-term two-state), SE of fit): 46.8 ± 0.1 °C; Tm, 2nd transition ([6]; CD 222 nm, 5 to 90 °C at 1 °C/min, 20 µM protein, 7 mM Tris pH 7.4, 170 mM KCl, 5 mM MgCl2, three-state fit, SE of fit): 64.5 ± 0.1 °C and 64.5 ± 0.2 °C; Reversibility of thermal unfolding ([6]; far-UV CD, second denaturation curve after cooling): fully reversible
dansylated NR peptide: NR peptide N-terminally labeled with dansyl fluorophore |  |  |  |  |  |  |  |  |  |  | Fraction of bound dansylated NR peptide, ∆LSBD641:ND-NR 1:1, experimentally determined ([7]; 50 μM ∆LSBD641, 2 μM D-NR, 50 μM ND-NR, Tris 50 mM pH 7.4, 150 mM KCl, 5 mM MgCl2, 1 h room temperature, average of three samples): 0.62 ± 0.1; Fraction of bound dansylated NR peptide, ∆LSBD641:ND-NR 1:4, experimentally determined ([7]; 50 μM ∆LSBD641, 2 μM D-NR, 200 μM ND-NR, Tris 50 mM pH 7.4, 150 mM KCl, 5 mM MgCl2, 1 h room temperature, average of three samples): 0.35 ± 0.1; D-NR peptide bound ([7]; 50 μM ∆LSBD641, 2 μM D-NR, no ND-NR, according to affinity from fluorescence titration): 83%; Affinity of dansylated vs non-dansylated NR peptide ([7]; fluorescence competition assay): essentially the same affinity
